Test results reported in the nanobody polyreactivity screen of Harvey et al. (2022).

Experiment: yeast display, Sf9 membrane polyspecificity reagent, FACS + sequencing; frameworks hold sequencing errors
Procedure, shortened: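 Nanobodies from a synthetic yeast display library (Saccharomyces cerevisiae BJ5465), induced 36–48 hours with galactose, were stained 1 hour at 4 °C with 10% biotinylated, detergent-solubilized Sf9 membrane reagent, enriched on streptavidin microbeads, then FACS-sorted. Anti-HA (expression) and streptavidin (reagent binding) fluorescence set low and high (top ~1%) gates. Polyreactivity labels come from the gate of origin. Genes were colony-PCR amplified, MiSeq 2 × 250 sequenced and filtered by CDR length.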

Sequence	polyreactivity (PSR sort gate)
QVQLVESGVGLVQAGGSLRLSCAASGRICVKYAMGWYRQAPGKERELVAAISASGGGTYYADSVKGRFTISRDNAKNTVYLQMNSLKPEDTAVYYCNADFRYPGQVPSYVTYDYWGQGTQVTVSS	low polyreactivity
QVQLVESGGGLVQAGGSLRLSCAASGSIFWANAMGWYRPAPGKERELVAAINFRATITYYPASVKGRFTISRDNAKNTVYLQMNSRKPEDTAVYYCAKAQAQRYSFYYWGQGTQVTVSS	high polyreactivity
QVQLVESGGGLVQAGGSLRLSCAASGRIFDYYAMGWYRQAPGKERELVASISRSGGSTYYADSVKGRFTISRDNAKNTVYLQMNSLKPEDTAVYYCAARRGYYYGRVGYWGQGTQVTVTS	high polyreactivity
QVQLVESGGGLVQAGGSLRLSCAASGSTFRWYAMGWYRQAPGKERELVAAISWSGSTTYYADSVKGRFTISRDNAKNTVYLQMNSLKPEDTAVYYCAAEVVFFGWNYDYWGQGTQVTVSS	high polyreactivity
QVQLVDSGGGLVQAGGSLRLSCAASGSIVYYNDMGWYRQAPGKEREVVATITSGGTTYYADSVKGRFTISRDNAKNSVYVQMNSLKGEDTAVYYCAATSYPGFDDWGQGSQVTVSS	low polyreactivity
QVQLVESGGGLVQAGGSLRLSCAASGRTFNRYGMGWYRQAPGKERELVASITSGGSTNYADSVKGRFTISRDNAKNSVYLQMNSLKPEDTAVYYCAKRSIGRYPRTYDYWGQGTQVTVSS	low polyreactivity
QVQLEESGGGLVQAGGSLRLSCAASGSIFRYNAMGWYRQAPGKERELVAAITSGDSTYYADSVKGRFTISRDNAKNTVYLQMNSLKPEDTAVYYCAADLRYIYWSYYYWGQGTQVTVSS	low polyreactivity
QVQLVESGGGLVQAGGSLRLSCAASGSTLHVYVMGWYRQAPGKERELVAAISYSGGITYYADSVKGRFTISRDNAKNTVYLQMNSLKPEDTAVYYCAARIISYRVRGKSRHDYWGQGTQVTVSS	low polyreactivity
QVQLVETGGGLVQAGGSLRLSCAASGRIFRTNAMGWYRQAPGKEREFVAAISKDGGRTYYADSVKGRFTISRDNAKNTVYLQMNSLKPEDTAVYYCNARHRYYRYGYWGQGTQVTVSS	high polyreactivity
QVQRVESGGGLVQAVGRLRLSCAASGSTFYTYTMGWYRPARGKERELVAAITWSGGSTYYADSVKGRFTISRDNAKNTVYLQMNRLKPEDTAVYYCNADQDYQGARPSGMDYWGLGTQVTVSS	low polyreactivity
QVQLVESGGGLVQAGGSLRLSCAASGFIFRAYAMGWYRQAPGKERELVAAISWRGTSTYYADSVKGRFTISRDNAKNTVYLQMNSLKPEDTAVYYCARRRYLPFSRSQGSEDYWGQGTQVTVSS	high polyreactivity
QVQLVESGGGLVQAGGSLRLSCAASGFNFWRNAMGWYRQAPGKERELVAVITWSGGRTYYADSVKGRFTFSRDNAKNSVYLQMNSLKPEDSAVYYCSTEIVGPHFDYWGQGTQVTVSS	low polyreactivity
QVQLVESGGGLVQAGGSLRLSCAASGFTLYNNAMGWYRQAPGKERELVARISGSGGSTYYADSVKGRFTISRDNAKNTVYLQMNSLKPEDTAVYYCNARATYVPTYGYTHWYNYWGQGTQVTVSS	low polyreactivity
QVQLVDSGGGLVQAGGSLRISCAASGLIFSKNVMGWYRQAPGKEREFVAAISQRGGSTYYADSVKGRFTISRDIAKNTVYLQMNSLKPEDTAVYYCAADNTVSHEDYWGQGTQVTVSS	high polyreactivity
QVQLVESGGGLVQAGGSLRLSCAASGSTFVLNAMGWYRQAPGKERELVAAINLDSGNTNYADSVKGRFTISRDNAKNTVYLQMNSLKPEDTAVYYCNTDVKFGGTAYDYWGQGTQVTVSS	low polyreactivity
QVQLVESGGGLVQAGGSLRLSCAASGSTIVRYAMGWYRQAPGKERELVASISSGGTTNYADSVNGRFTISRDNAKNTVYLQMNSLKPEDTAVYFCNGTWAYRGHGYWGQGTQVTVSS	low polyreactivity
QVQLVESGGGLVQAGGRLRLSCAASGRIFWINDMGWYRQAPGKERELVAAITWSGASTYYADSVKGRFTISRDNAKNTVYLQMNSLKPEDTAVYYCAAVIADSLYYSYDYWGQGTQVTVSS	high polyreactivity
QVQLVESGGGLVQAGGSLRLSCAASGRIFSDYAMGWYRQAPGKERELVAAISWGGGRTYYADSVKGRFTISRDNAKNTVYLQMNSLKPEDTAVYYCNRGTVNSWARGYWGQGTQVTVSS	high polyreactivity
QVQLVESGGGLVQAGGSLRLSCAASGSTFYDNAMGWYRQAPGKERELVASIRSGGSTKYADSVKGRFTISRDNAKNTVYLQMNSLKPEDTAVYYCAADVHFVKDPPVKSIYGKFYYWGQGTQVTVSS	low polyreactivity
QVQLVESGGGLVQAGGSLRLSCAASGSIFIGYGMGWYRQAPGKERELVAAITSGSITNYADSVKGRFTISRDNAKNTVYLQMNSLKPEDTAVYNCNADVNFIDDDYWGQGTQVTVSA	low polyreactivity
QVQLVESGGGLVQAGGSLRLCCAASGFTFSWYAMGWYRQAPGKERELVAAISSSGGSTYYADSVKGRFTISRDNAKNTVYLQMYSLKPEDTAVYYCNAYRSASVVVGYDYWGQGTQVTVSS	high polyreactivity
QVQLEESGGGLVHAGGSLRLSCAASGFTFKYNAMGWYRQAPGKEREFVASISSGSTNYADSVKGRFTISRDNAKNTVYLQMNSLKPEDTAVYYCAASVSRGKRFRYGYVFKMDYWGQGTQVTVSS	low polyreactivity

Sequence	polyreactivity (PSR sort gate)
QVQLVESGGGLVQAGGSLRLSCAASGSISIKNAMGWYSQAPGKERELVATITYNGGSTYYADSVKGRFTISRDNAKNTVYLQMNSLKPEDTAVYYCSAGYLYYAEYDYWGQGTQVTVSS	low polyreactivity
QVQLVESGGGLVQAGGSLRLSSAASGFTFRYYAMGWYRQAPGKERELVAAISWSGGRTYYADSVKGRFTISRDNAKYTVYLQMNILKPEDTAVYYCAADGYPYFYGDFDYSGQGTQVTVSS	high polyreactivity
QVQLVESGGGLVQAGGSLRLSCAASGSIFPDNAMGWDRQAPGKERELVAAITSGGGTYYADSVKGRFTISRDNAKNTVYLQMNSLKPEDTAVYYCNTEDYTQYEPGYYPPNYYWGQGTQVTVSS	low polyreactivity
QVQLVESGGGLVQAGGSLRLSCAASGGTFHYNAMGWSRQAPGKERELVAAITESGGRTYYADSVKGRFTISRDNAKNTVYLQMNSLKPEDTAVYYCNADQDYDAAYRSDYWGQGTQVTVSS	low polyreactivity
QVQLVESGGGLVQAGGSLRVSCAASGGIFGLYTMGWYRQAPGTERELVAGISKRGTRTRYADSVKGRFTISRDNAKNTVYLQMNSLKPDDTAVYYCNADYYVSKLDDWGQGTQVTVSS	high polyreactivity
QVHLVESGGGLVQAGGSLRLICAASGFIFRQYAMGWYRQAPGKERELVAAISYRGASTYYADSVKGRFTISRDNAKNTVYLQMNSLKPEDTAVYYCADRYYNPWARVSGYDYWGQGTQVTVSS	high polyreactivity
QVQLVESGGGLVQAGGSLRLSCAASGRTFVVNAMGWYSPAPGKEREFVAGISVRGGITYYADSVKGRFTISRDNAKNTVYLQMNSLKPEDTAVYYCAAYILDYGGDQRIFDYWGQGTQVTVSS	low polyreactivity
QVQLVESGGGLVQAGGSLRLSCAASGFTFGGNVMGWYSQAPGKERELVAAISGAGSKYYADSVKGRFTISRDNAKNTVNLQMNSLKPEDTAVNYCAADDVARYLSGYDYWGQGTQVTVSS	low polyreactivity
QVQLVESGGGLVQAGGSLRLSCAASGGIFVGNAMGWYRQAPGKERELVAAISQRGGRTYYADSVKGRFTISRDNAKNTVYLQMNSLKPEDTAVYYCAAGYWLSTDSGYPFQYYLYDYWGQGTQVTVSS	high polyreactivity
QVQLVESGGGLVQAGGSLRLSCAASGRIFWKYTMGWYRQAPGKERELVAAIRSGGGSTYYADSVKGRFTISRDNAKNTVYLQLNSLKPEDTAFYYCAAEPSQRYPWSGYDYWGQGTQVTVSS	low polyreactivity
QVQLVESVGGLDQARGSLRLSCAASGFIYRYYPMGWYRQSPGKERELVASIDWSGGNTYYADSVKGRFTISRDKAKYTVYLQMNSLKPEDTAVYYCNRRGMDWGLGTQVTVSS	low polyreactivity
QVQLGESGGRKVQPGGSLRLSCAASGYTIAWYVMGWSRQAPGKESELVAAISWSGGRTYYADSVKGRFTISRDNAKNTVYLQMNSLNPQDTAVYYCNAYWNPASKYDYWGQGTQVTVSS	high polyreactivity
QVQLVESGGGLVQEGGSLRLSCADSGRIFSTNAMGWSRQAPGKERELVAAISWSTGSTYYADSVKGRFTISRDNAKNTVYLQMNSLKPEDTAVYYCAASYTRTYWAYSYGYWGQGTQVTVSS	high polyreactivity
QVQLVESGGGLVQAGGSLRLSCAPSGSIFDYYVRGWSRQAPGKERELVAAISWSGASTYYADSVKGRFTISRDNAKNTVYLQITSLKPEDTAVYYCAADYGVNTLIDYDYWGQGTQVTVSS	low polyreactivity
QYQLVESGGGLVQAGGRLRLSCAASGSIFSNYAMGWYRQAPGKERQFVAAISGGGGSTYYADSVKGRFTISRDNANNTVYLQMNSLKPEDTAVYYCARVRYYGALKLYAYDHWGQGTQVTVSS	high polyreactivity
QVQLVESGGGLVQAGGSLRLSCAASGRIFAGYAMGWYRQAPGKERELVAAITGTGDRTYYADSVKGRFTISRDNAKNTVYLQMNSLKPEDTAVYYCAAAYGAYYPWGYDYWGQGTQVTVSS	low polyreactivity
QVQLVESGGGLVQAGGSLRLSCAASGFTFSEYAMGWYRQAPGKERELVAAISRGTSTYYADSVKGRFTISRDNAKNTVYLQMNSVKPEDTAVYYCAAAPSYYPARHGYWGQVTQVTVSS	low polyreactivity
QVQLVESGGGLVQAGGSLRLSCAASGSIFAWYAMGWYRQAPGKERELVATITWSGGSTYYADSVKGRFTITRDNAKNTVYLQINSLKPEDTAVYYCAAEVVGIWYDLWYQGDYWGQGTQVTVSS	low polyreactivity
QVQLQESGGGLVQAGGGLRLSCAASGTISGPHVMGWYRQAPGEEREFVAAINVGANTYYADNVKGRFTISRDNAKNTVYLQMNSLKPEDTAVYYCAAVYYGDIGHEYWGQGTQVTVSC	low polyreactivity
QVQLVESGGGLVQAGGSLRLSCAASGSIFSYNAMGWYRQAPGKERELVAAISWSGGSTYYADSVKGRFTISRDNAKNTVYLQMNSLKPEDTAVYYCNAYRYRQSSSDKYGYWGQGTQVTVSS	high polyreactivity
QVQRVESGGGLVQEGGSLRLSCAASGRIFGYYAMGWYRQAPGKERELVAVITGNGSTYYADSVKGRFTISRDNAKNTVYLQRNSLNPEETAVYYCAARYVFVVRGRTVPRYYYWGQGTQVTVSS	high polyreactivity
